Measured values published in patent US11419921B2, “Methods of treating neurological disorders” (EnClear Therapies, Inc., priority 2018, dated 2022).

Tested on: (GR)10
Assay: Cleavage of (GR)10 by enzymes in solution (PBS with CaCl2 and MgCl2), LC/MS of GR repeats
Assay type: biochemical
Settings: for (GR)1 concentration / (GR)2 concentration / (GR)4 concentration / (GR)6 concentration / (GR)8 concentration / (GR)10 concentration: (GR)10 50 μM; for (GR)1 / (GR)2 / (GR)3 / (GR)4 / (GR)5 / (GR)6 / (GR)8 / (GR)10: PBS, normalized
Experimental: • (GR)10 dipeptide (also (GR)8, (GR)6, (GR)4, (GR)2) were synthetized by solid-phase synthesis by CanPeptide; All peptides are uncapped and supplied lyophilized with TFA as counter ions. Purity was always above 95%. • Buffer: PBS buffer containing CaCl2 and MgCl2. • Stock solution of enzyme (e.g., 10 mg/mL) (prepared per manufacturer instructions) in PBS. Activators added as necessary. • Working solution of protein of the desired concentration (e.g., 100 μg/mL) prepared immediately before use by diluting the stock solution (e.g., 5 μL of 10 mg/mL stock solution) in PBS buffer (e.g., in 495 μL of PBS). Exemplary Procedure Using 50 μM Concentrations of (GR)10
25 μL of a 100 μM solution of (GR)10 was added to each well of a 96-well plate. 25 μL of a solution of enzyme (two times the desired final enzyme concentration) was added, and the plates were incubated at room temperature. At the specified time points (5 minutes, 10 minutes, 30 minutes, 60 minutes, and 180 minutes) 2.5 μL of a 10% TFA solution were added to stop the reaction. For the time 0 min well, the TFA was added to the well before addition of the enzyme. After last time point, all samples were further diluted with 150 μL of dilution solution. The quenched reaction mixtures were analyzed by LC/MS to determine the concentration of GR repeats of different lengths.
The chromatography and mass spectrometry conditions utilized are shown in Table 2 and Table 3, respectively.

B1: Clostripain: sulfhydryl protease cleaving at the C-terminus of arginine residues; in Table 23 also immobilized on agarose resin (protein)
chain: NKNQKVTIMYYCDADNNLEGSLLNDIEEMKTGYKDSPNLNLIALVDRSPRYSSDEKVLGEDFSDTRLYKIEHNKANRLDGKNEFPEISTTSKYEANMGDPEVLKKFIDYCKSNYEADKYVLIMANHGGGAREKSNPRLNRAICWDDSNLDKNGEADCLYMGEISDHLTEKQSVDLLAFDACLMGTAEVAYQYRPGNGGFSADTLVASSPVVWGPGFKYDKIFDRIKAGGGTNNEDDLTLGGKEQNFDPATITNEQLGALFVEEQRDSTHANGRYDQHLSFYDLKKAESVKRAIDNLAVNLSNENKKSEIEKLRGSGIHTDLMHYFDEYSEGEWVEYPYFDVYDLCEKINKSENFSSKTKDLASNAMNKLNEMIVYSFGDPSNNFKEGKNGLSIFLPNGDKKYSTYYTSTKIPHWTMQSWYNSIDTVKYGLNPYGKLSWCKDGQDPEINKVGNWFELLDSWFDKTNDVTGGVNHYQW
B1 was tested, and the “(GR)1 concentration” value (enzyme 2.5 μg/mL, 0 min) was “BLQ”, the “(GR)2 concentration” value (enzyme 2.5 μg/mL, 0 min) was “BLQ” and the “(GR)4 concentration” value (enzyme 2.5 μg/mL, 0 min) was “BLQ”. For the same molecule, the “(GR)6 concentration” value (enzyme 2.5 μg/mL, 0 min) was “BLQ”, the “(GR)8 concentration” value (enzyme 2.5 μg/mL, 0 min) was 0.7 µM and the “(GR)10 concentration” value (enzyme 2.5 μg/mL, 0 min) was 39.7 µM. The “(GR)1 concentration” value (enzyme 2.5 μg/mL, 5 min) was 25.6 µM, the “(GR)2 concentration” value (enzyme 2.5 μg/mL, 5 min) was 8.7 µM and the “(GR)4 concentration” value (enzyme 2.5 μg/mL, 5 min) was 6.7 µM. For the same molecule, the “(GR)6 concentration” value (enzyme 2.5 μg/mL, 5 min) was 3.6 µM, the “(GR)8 concentration” value (enzyme 2.5 μg/mL, 5 min) was 2.2 µM and the “(GR)10 concentration” value (enzyme 2.5 μg/mL, 5 min) was 5.4 µM. The “(GR)1 concentration” value (enzyme 2.5 μg/mL, 10 min) was 35.3 µM, the “(GR)2 concentration” value (enzyme 2.5 μg/mL, 10 min) was 14.0 µM and the “(GR)4 concentration” value (enzyme 2.5 μg/mL, 10 min) was 9.8 µM. The “(GR)6 concentration” value (enzyme 2.5 μg/mL, 10 min) was 4.3 µM, the “(GR)8 concentration” value (enzyme 2.5 μg/mL, 10 min) was 1.8 µM and the “(GR)10 concentration” value (enzyme 2.5 μg/mL, 10 min) was 2.3 µM. For the same molecule, the “(GR)1 concentration” value (enzyme 2.5 μg/mL, 30 min) was 72.9 µM, the “(GR)2 concentration” value (enzyme 2.5 μg/mL, 30 min) was 36.8 µM and the “(GR)4 concentration” value (enzyme 2.5 μg/mL, 30 min) was 7.5 µM. The “(GR)6 concentration” value (enzyme 2.5 μg/mL, 30 min) was 1.4 µM, the “(GR)8 concentration” value (enzyme 2.5 μg/mL, 30 min) was “BLQ” and the “(GR)10 concentration” value (enzyme 2.5 μg/mL, 30 min) was “BLQ”. For the same molecule, the “(GR)1 concentration” value (enzyme 2.5 μg/mL, 60 min) was 148.6 µM, the “(GR)2 concentration” value (enzyme 2.5 μg/mL, 60 min) was 62.1 µM and the “(GR)4 concentration” value (enzyme 2.5 μg/mL, 60 min) was 1.9 µM. For the same molecule, the “(GR)6 concentration” value (enzyme 2.5 μg/mL, 60 min) was “BLQ”, the “(GR)8 concentration” value (enzyme 2.5 μg/mL, 60 min) was “BLQ” and the “(GR)10 concentration” value (enzyme 2.5 μg/mL, 60 min) was “BLQ”. For the same molecule, the “(GR)1 concentration” value (enzyme 2.5 μg/mL, 120 min) was 325.0 µM, the “(GR)2 concentration” value (enzyme 2.5 μg/mL, 120 min) was “BLQ” and the “(GR)4 concentration” value (enzyme 2.5 μg/mL, 120 min) was “BLQ”. For the same molecule, the “(GR)6 concentration” value (enzyme 2.5 μg/mL, 120 min) was “BLQ”, the “(GR)8 concentration” value (enzyme 2.5 μg/mL, 120 min) was “BLQ” and the “(GR)10 concentration” value (enzyme 2.5 μg/mL, 120 min) was “BLQ”. For the same molecule, the “(GR)1 concentration” value (enzyme 10 μg/mL, 0 min) was “BLQ”, the “(GR)2 concentration” value (enzyme 10 μg/mL, 0 min) was “BLQ” and the “(GR)4 concentration” value (enzyme 10 μg/mL, 0 min) was “BLQ”. The “(GR)6 concentration” value (enzyme 10 μg/mL, 0 min) was “BLQ”, the “(GR)8 concentration” value (enzyme 10 μg/mL, 0 min) was 0.6 µM and the “(GR)10 concentration” value (enzyme 10 μg/mL, 0 min) was 37.9 µM. The “(GR)1 concentration” value (enzyme 10 μg/mL, 5 min) was 99.0 µM, the “(GR)2 concentration” value (enzyme 10 μg/mL, 5 min) was 51.8 µM and the “(GR)4 concentration” value (enzyme 10 μg/mL, 5 min) was 5.4 µM. The “(GR)6 concentration” value (enzyme 10 μg/mL, 5 min) was 0.6 µM, the “(GR)8 concentration” value (enzyme 10 μg/mL, 5 min) was “BLQ” and the “(GR)10 concentration” value (enzyme 10 μg/mL, 5 min) was 0.8 µM. The “(GR)1 concentration” value (enzyme 10 μg/mL, 10 min) was 145.9 µM, the “(GR)2 concentration” value (enzyme 10 μg/mL, 10 min) was 62.2 µM and the “(GR)4 concentration” value (enzyme 10 μg/mL, 10 min) was 1.8 µM. For the same molecule, the “(GR)6 concentration” value (enzyme 10 μg/mL, 10 min) was “BLQ”, the “(GR)8 concentration” value (enzyme 10 μg/mL, 10 min) was “BLQ” and the “(GR)10 concentration” value (enzyme 10 μg/mL, 10 min) was “BLQ”. For the same molecule, the “(GR)1 concentration” value (enzyme 10 μg/mL, 30 min) was 336.9 µM, the “(GR)2 concentration” value (enzyme 10 μg/mL, 30 min) was “BLQ” and the “(GR)4 concentration” value (enzyme 10 μg/mL, 30 min) was “BLQ”. For the same molecule, the “(GR)6 concentration” value (enzyme 10 μg/mL, 30 min) was “BLQ”, the “(GR)8 concentration” value (enzyme 10 μg/mL, 30 min) was “BLQ” and the “(GR)10 concentration” value (enzyme 10 μg/mL, 30 min) was “BLQ”. The “(GR)1 concentration” value (enzyme 10 μg/mL, 60 min) was 340.3 µM, the “(GR)2 concentration” value (enzyme 10 μg/mL, 60 min) was “BLQ” and the “(GR)4 concentration” value (enzyme 10 μg/mL, 60 min) was “BLQ”. For the same molecule, the “(GR)6 concentration” value (enzyme 10 μg/mL, 60 min) was “BLQ”, the “(GR)8 concentration” value (enzyme 10 μg/mL, 60 min) was “BLQ” and the “(GR)10 concentration” value (enzyme 10 μg/mL, 60 min) was “BLQ”. For the same molecule, the “(GR)1 concentration” value (enzyme 10 μg/mL, 120 min) was 355.8 µM, the “(GR)2 concentration” value (enzyme 10 μg/mL, 120 min) was “BLQ” and the “(GR)4 concentration” value (enzyme 10 μg/mL, 120 min) was “BLQ”. For the same molecule, the “(GR)6 concentration” value (enzyme 10 μg/mL, 120 min) was “BLQ”, the “(GR)8 concentration” value (enzyme 10 μg/mL, 120 min) was “BLQ” and the “(GR)10 concentration” value (enzyme 10 μg/mL, 120 min) was “BLQ”. The “(GR)1” value (in solution - 5 min reaction) was 82.6 µM, the “(GR)2” value (in solution - 5 min reaction) was 106.2 µM and the “(GR)3” value (in solution - 5 min reaction) was 39.1 µM. The “(GR)4” value (in solution - 5 min reaction) was 28.6 µM, the “(GR)5” value (in solution - 5 min reaction) was 12.7 µM and the “(GR)6” value (in solution - 5 min reaction) was 8.4 µM. For the same molecule, the “(GR)8” value (in solution - 5 min reaction) was 0.0 µM, the “(GR)10” value (in solution - 5 min reaction) was 12.4 µM and the “(GR)1” value (in solution - 60 min reaction) was 383.2 µM. The “(GR)2” value (in solution - 60 min reaction) was 0.0 µM, the “(GR)3” value (in solution - 60 min reaction) was 0.0 µM and the “(GR)4” value (in solution - 60 min reaction) was 0.0 µM. For the same molecule, the “(GR)5” value (in solution - 60 min reaction) was 0.0 µM, the “(GR)6” value (in solution - 60 min reaction) was 0.0 µM and the “(GR)8” value (in solution - 60 min reaction) was 0.0 µM. For the same molecule, the “(GR)10” value (in solution - 60 min reaction) was 0.0 µM.
